According to PMC3702667 (Nature structural & molecular biology, 2013):

B1: GST–tagged Rpb1_(1168–1302) (domain or fragment)
chain: not shown
B2: RECQL5 IRI domain (residues 490–620) (domain or fragment)
chain: GSGDEGRDEAHKREWNLFYQKQMQLRKGKDPKIEEFVPPDENCPLKEASSRRIPRLTVKAREHCLRLLEEALSSNRQSTRTADEADLRAKAVELEHETFRNAKVANLYKASVLKKVADIHRASKDGQPYDM
B3: GST–RECQL5_(490–620) (domain or fragment)
chain: B2 chain
B4: untagged recombinant Rpb1_(1168–1302) (domain or fragment)
chain: not shown

What was measured:
Assay in all cases: pull-down
[1] = molecular target: RECQL5_(1–620) (human, UniProt O94762 1-620)
[2] = molecular target: B1
[3] = molecular target: B4
[4] = molecular target: GST–fused RECQL5_(1–620) (human, UniProt O94762 1-620)

Binder: B1
binding result [1]: binds

Binder: B2
binding result [2]: binds

Binder: B3
binding result [3]: binds

Binder: B4
binding result [4]: binds
